From paper PMC2115445 come the findings set out here.

The target of assay [1] is human erythrocyte ankyrin (human) (UniProt P16157). The assay is described as follows: co-sedimentation.
Assay [2] has the same target. The assay is described as follows: pull-down.
Assay [3] addresses Na,K-ATPase (alpha-beta heterodimer) of dog kidney membranes (dog (endogenous in canine kidney)) (UniProt P50997). Nature of the assay: co-sedimentation.

Values joined by “and” are separate entries in the source; they are usually repeats but may differ in a detail not shown here. Equal entries are not always repeated.

human erythrocyte ankyrin (human), sequence (P16157 whole entry): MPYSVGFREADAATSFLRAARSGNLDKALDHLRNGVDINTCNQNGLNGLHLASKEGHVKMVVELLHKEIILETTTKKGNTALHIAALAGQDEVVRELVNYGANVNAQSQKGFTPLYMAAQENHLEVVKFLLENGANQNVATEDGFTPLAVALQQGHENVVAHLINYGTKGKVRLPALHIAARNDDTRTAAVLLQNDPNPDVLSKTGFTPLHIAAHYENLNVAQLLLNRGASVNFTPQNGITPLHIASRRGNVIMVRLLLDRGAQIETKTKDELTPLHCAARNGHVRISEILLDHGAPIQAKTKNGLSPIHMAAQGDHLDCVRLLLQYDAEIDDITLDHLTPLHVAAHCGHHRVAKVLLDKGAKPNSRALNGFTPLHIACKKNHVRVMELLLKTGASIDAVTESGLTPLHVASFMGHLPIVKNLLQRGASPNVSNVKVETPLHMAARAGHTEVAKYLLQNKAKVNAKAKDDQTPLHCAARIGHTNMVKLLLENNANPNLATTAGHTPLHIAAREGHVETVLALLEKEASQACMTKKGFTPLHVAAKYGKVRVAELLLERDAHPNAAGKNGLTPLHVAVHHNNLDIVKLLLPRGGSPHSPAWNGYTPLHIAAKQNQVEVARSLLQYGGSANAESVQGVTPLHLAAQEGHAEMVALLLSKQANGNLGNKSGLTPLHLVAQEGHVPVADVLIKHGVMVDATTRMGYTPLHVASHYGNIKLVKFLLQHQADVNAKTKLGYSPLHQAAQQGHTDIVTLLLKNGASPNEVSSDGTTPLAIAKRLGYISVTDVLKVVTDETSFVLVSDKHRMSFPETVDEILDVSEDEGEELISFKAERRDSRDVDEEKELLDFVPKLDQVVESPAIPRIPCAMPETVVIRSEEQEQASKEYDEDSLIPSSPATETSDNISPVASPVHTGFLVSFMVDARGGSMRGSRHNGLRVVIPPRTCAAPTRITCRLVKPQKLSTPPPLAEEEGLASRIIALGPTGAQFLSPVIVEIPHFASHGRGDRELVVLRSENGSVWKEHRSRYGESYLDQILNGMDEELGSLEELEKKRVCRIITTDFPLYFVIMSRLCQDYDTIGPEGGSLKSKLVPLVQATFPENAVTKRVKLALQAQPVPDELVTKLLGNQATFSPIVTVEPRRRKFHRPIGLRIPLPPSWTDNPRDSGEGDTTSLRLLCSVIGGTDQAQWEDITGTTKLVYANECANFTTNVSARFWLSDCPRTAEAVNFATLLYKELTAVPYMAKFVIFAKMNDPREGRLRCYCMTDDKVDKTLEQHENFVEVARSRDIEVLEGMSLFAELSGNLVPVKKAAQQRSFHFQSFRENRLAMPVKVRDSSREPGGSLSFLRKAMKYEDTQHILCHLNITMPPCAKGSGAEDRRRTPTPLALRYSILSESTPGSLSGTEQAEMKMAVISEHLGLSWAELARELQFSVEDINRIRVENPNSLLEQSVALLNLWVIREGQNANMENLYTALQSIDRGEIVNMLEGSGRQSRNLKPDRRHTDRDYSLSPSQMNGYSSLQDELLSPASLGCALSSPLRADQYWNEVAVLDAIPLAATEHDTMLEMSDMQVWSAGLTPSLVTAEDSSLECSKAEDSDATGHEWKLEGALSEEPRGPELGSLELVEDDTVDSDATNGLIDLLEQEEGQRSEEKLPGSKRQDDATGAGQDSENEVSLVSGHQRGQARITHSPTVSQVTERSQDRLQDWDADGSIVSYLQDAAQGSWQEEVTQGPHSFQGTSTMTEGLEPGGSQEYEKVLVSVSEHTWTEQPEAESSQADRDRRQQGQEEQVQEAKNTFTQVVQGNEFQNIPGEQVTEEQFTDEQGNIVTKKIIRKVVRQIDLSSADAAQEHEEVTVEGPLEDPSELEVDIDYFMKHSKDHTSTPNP

“43-kD cytoplasmic domain of human erythrocyte band 3 (domain or fragment)”: the Ki – broadly, a dissociation constant, usually derived from enzyme kinetics or from competition with a known ligand – in assay [1] worked out at 3500 nM. Take “Na,K-ATPase (alpha-beta heterodimer) of dog kidney membranes (from UniProt P50997 1-1021; P06583 1-303) (complex)”: in assay [2], the fold bound to immobilized ankyrin against immobilized BSA amounted to 17 fold. For “human erythrocyte ankyrin (from UniProt P16157 1-1881) (natural protein)”, in assay [3], the Kd (as a rule, a measure of binding affinity in units of concentration) is 2590 nM and 2570 nM; the stoichiometry N (molecules of Na,K-ATPase per ankyrin) is 3.5 to 4.8. The stoichiometry N – broadly, a count of units in the complex or per binding partner – in assay [3] (scale: molecules of Na,K-ATPase alpha-beta heterodimer per ankyrin) is 2.93 and 5.05.
